Where no end group is shown, it is not given here. [ ]: non-standard residue; d: D form. 2Thi = N[C@@H](Cc1cccs1)C(=O)O
Assays:
B2 receptor [1] = experiment: cell-based or functional assay
B2 receptor [2] = experiment: cell-based or functional assay; remark: listed apart in the source

Sequence of B2 receptor (P30411 whole entry): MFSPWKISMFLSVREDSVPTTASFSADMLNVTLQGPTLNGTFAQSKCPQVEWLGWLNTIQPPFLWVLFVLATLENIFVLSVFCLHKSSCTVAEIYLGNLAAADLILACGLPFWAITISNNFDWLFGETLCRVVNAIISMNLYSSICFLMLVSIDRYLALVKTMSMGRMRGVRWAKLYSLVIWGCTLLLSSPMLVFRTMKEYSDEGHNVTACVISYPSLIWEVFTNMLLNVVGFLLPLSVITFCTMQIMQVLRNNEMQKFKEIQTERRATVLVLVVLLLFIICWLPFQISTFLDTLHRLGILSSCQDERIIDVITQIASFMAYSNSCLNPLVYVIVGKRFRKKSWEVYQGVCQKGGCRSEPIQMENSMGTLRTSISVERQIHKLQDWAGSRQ

| Binder | Relative affinity activity (B2-NFAT-CHO-K1 luciferase reporter gene assay, from EC50) (B2 receptor [1]) [%] | EC50 value (B2 receptor reporter gene assay, FIG. 4a) (B2 receptor [2]) [µg/mL] | fold activity against Lys-BKm01-YNHS10K (B2 receptor reporter gene assay) (B2 receptor [2]) [fold] |
| --- | --- | --- | --- |
| KRPPGHSPFR [Lys-BKm03] | < 10 |  |  |
| KRPPGFSPHR [Lys-BKm04] | < 10 |  |  |
| KRPPGXSPFR ({THI} (β-2-thiophenylalanine) at position 6; N-terminal single modification with M-SPA-10K (straight-chain mPEG succinimidyl propionate, about 10 kDa)) [Lys-BKm01-SPA10K] |  | 90.8 | ~4 |
| KRPPGXSPFRR ({THI} (β-2-thiophenylalanine) at position 6: KRPPG{THI}SPFRR) [Lys-BKm06] | 90 |  |  |
| KRPPGFSPFR [Lys-BK (wild-type lysyl bradykinin)] | 100 |  |  |
| KRPPGXSPFR ({THI} (β-2-thiophenylalanine) at position 6; N-terminal single modification with M-YNHS-10K (branched-chain mPEG succinimidyl acetate, about 10 kDa)) [Lys-BKm01-YNHS10K] |  | 347 |  |
| KRPPGXSPFR ({THI} (β-2-thiophenylalanine) at position 6: KRPPG{THI}SPFR) [Lys-BKm01] | 100 |  |  |
| KRPPG[2Thi]SPFRRPPG[2Thi]SPFR [Lys-BKm12] | 100 |  |  |
| KRPPGXSPXR ({THI} (β-2-thiophenylalanine) at positions 6 and 9: KRPPG{THI}SP{THI}R) [Lys-BKm07] | < 10 |  |  |
| KRPPG[2Thi]SPFRKRPPG[2Thi]SPFR [Lys-BKm14] | 100 |  |  |

Reference: patent US20250295792A1 (ZONHON BIOPHARMA INSTITUTE, published 2025)
